Source: article PMC11132685

Key:
Test in all cases: SEC-MALS; purified NACHOs; oligomeric state; conditions not given
[1] = molecular target: tetrabrachion-stabilised recombinant N2 NA (NACHO) of A/ANKARA/2396/2015 (not stated | influenza A virus (H3N2) A/ANKARA/2396/2015)
[2] = molecular target: tetrabrachion-stabilised recombinant N2 NA (NACHO) of A/BRISBANE/273/2016 (not stated | influenza A virus (H3N2) A/BRISBANE/273/2016)
[3] = molecular target: tetrabrachion-stabilised recombinant N2 NA (NACHO) of A/CATALONIA/9503S/2017 (not stated | influenza A virus (H3N2) A/CATALONIA/9503S/2017)
[4] = molecular target: tetrabrachion-stabilised recombinant N2 NA (NACHO) of A/HATAY/4990/2016 (not stated | influenza A virus (H3N2) A/HATAY/4990/2016)
[5] = molecular target: tetrabrachion-stabilised recombinant N2 NA (NACHO) of A/HONGKONG/4801/2014 (not stated | influenza A virus (H3N2) A/HONGKONG/4801/2014)
[6] = molecular target: tetrabrachion-stabilised recombinant N2 NA (NACHO) of A/PARIS/2379/2014 (not stated | influenza A virus (H3N2) A/PARIS/2379/2014)
[7] = molecular target: tetrabrachion-stabilised recombinant N2 NA (NACHO) of A/SINGAPORE/INFIMH160019/2016 (not stated | influenza A virus (H3N2) A/SINGAPORE/INFIMH160019/2016)
[8] = molecular target: tetrabrachion-stabilised recombinant N2 NA (NACHO) of A/STOCKHOLM/14/2012 (not stated | influenza A virus (H3N2) A/STOCKHOLM/14/2012)
[9] = molecular target: tetrabrachion-stabilised recombinant N2 NA (NACHO) of A/TEXAS/50/2012 (not stated | influenza A virus (H3N2) A/TEXAS/50/2012)
[10] = molecular target: tetrabrachion-stabilised recombinant N2 NA (NACHO) of A/VICTORIA/361/2011 (not stated | influenza A virus (H3N2) A/VICTORIA/361/2011)

tetrabrachion-stabilised recombinant N2 NA (NACHO) of A/ANKARA/2396/2015 (enzyme)
stoichiometry N [1]: 4

tetrabrachion-stabilised recombinant N2 NA (NACHO) of A/BRISBANE/273/2016 (enzyme)
stoichiometry N [2]: 4

tetrabrachion-stabilised recombinant N2 NA (NACHO) of A/CATALONIA/9503S/2017 (enzyme)
stoichiometry N [3]: 4

tetrabrachion-stabilised recombinant N2 NA (NACHO) of A/HATAY/4990/2016 (enzyme)
stoichiometry N [4]: 4

tetrabrachion-stabilised recombinant N2 NA (NACHO) of A/HONGKONG/4801/2014 (enzyme)
stoichiometry N [5]: 4

tetrabrachion-stabilised recombinant N2 NA (NACHO) of A/PARIS/2379/2014 (enzyme)
stoichiometry N [6]: 4

tetrabrachion-stabilised recombinant N2 NA (NACHO) of A/SINGAPORE/INFIMH160019/2016 (enzyme)
stoichiometry N [7]: 4

tetrabrachion-stabilised recombinant N2 NA (NACHO) of A/STOCKHOLM/14/2012 (enzyme)
stoichiometry N [8]: 4

tetrabrachion-stabilised recombinant N2 NA (NACHO) of A/TEXAS/50/2012 (enzyme)
stoichiometry N [9]: 4

tetrabrachion-stabilised recombinant N2 NA (NACHO) of A/VICTORIA/361/2011 (enzyme)
stoichiometry N [10]: 4
